The record followed here is patent US20260285956 (published 2026).

B1: ACI-7071-704H9-Ab1 (antibody, V domains shown)
VH: EVQLVESGGDLVKPGGSLKLSCAASGFTFANYAMSWIRQTPEKRLEWVATISGGGLYINYPANLKGRFTISRDNAKNNLYLQMSHLKSEDTAMYYCVKDRGQNWSWFAYWGQGTLVTVSA
VL: QLVLTQSSSASFSLGASAKLTCTLSSQHSTYTIEWYQQQPLKPPKYVMELEKDGSHSTGDGIPDRFSGSSSGADRYLSISNIQPEDEAIYICGVGDTIKEQFVYVFGGGTKVTVL
B2: ACI-7071-707A6-Ab1 (antibody, V domains shown)
VH: EVQLVESGGVLVKPGGSLKLSCAASGFIFSSFSMSWVRQNPEKRLEWVATISAAGRYIYYPDNVKGRFTISRDNAKNNLYLYMSHVRSEDTAIYYCVKDRGLNWSWFAYWGQGTLVTVSA
VL: QLVLTQSSSASFSLGASAKLTCTLSSQHSTYTIEWYQQQPLKPPKYVMELKKDGSHSTGDGIPDRFSGSSSGADRYLSISDIQPEDEAVYICGVGDTIKEQFVYVFGGGTKVTVL
B3: ACI-7071-801H1-Ab1 (antibody, V domains shown)
VH: EVQLQQSGPELVKPGASVKISCKTSGYTFTEYTMHWVKQSHGQSLEWIGGIHPNNGGTIYNQKFKGRATLTVDKSSSTAYMEFRSLTSDDSAVYYCASPCWGQGTSVTVSS
VL: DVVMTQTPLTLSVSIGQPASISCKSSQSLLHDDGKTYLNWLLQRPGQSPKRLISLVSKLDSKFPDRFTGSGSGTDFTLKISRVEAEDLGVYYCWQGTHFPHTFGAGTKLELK
B4: ACI-7071-806H5-Ab1 (antibody, V domains shown)
VH: DVKLEDSGGGLVQPEGSMKLSCVASGFIFSDAWMAWVRQSPEKGLEWVAEIRGRASSHATYYAESVKGRFTISRDDSKSSVYLQMNSLRAEDTGVYYCTRGVNYWGQGTALTVSS
VL: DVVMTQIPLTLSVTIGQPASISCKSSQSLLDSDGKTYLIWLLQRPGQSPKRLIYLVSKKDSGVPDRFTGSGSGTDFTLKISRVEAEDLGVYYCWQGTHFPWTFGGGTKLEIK
B5: ACI-7071-810H12-Ab1 (antibody, V domains shown)
VH: QVQLQQSGAELVRPGASVKLSCKALDYTFTDYEMHWVKQTPVHGLEWIGAVHPRSGGTVYNQRFRAKATLTADKSSSTAFIELSSLTSEDSAVYFCTYYGYDEIYWGQGTLVTVSA
VL: DVVMTQISFSLPVSLGDQASISCRSSQSLVHSDGTTYLHWYLQKPGQSPKLLIYKVSNRFSGVPDRFSGSGSGTDFTLKISRVEAEDLGVYFCSQSTHAPYTFGGGTKLEIK

soluble TDP-43 (human), sequence (chain, as listed by the source): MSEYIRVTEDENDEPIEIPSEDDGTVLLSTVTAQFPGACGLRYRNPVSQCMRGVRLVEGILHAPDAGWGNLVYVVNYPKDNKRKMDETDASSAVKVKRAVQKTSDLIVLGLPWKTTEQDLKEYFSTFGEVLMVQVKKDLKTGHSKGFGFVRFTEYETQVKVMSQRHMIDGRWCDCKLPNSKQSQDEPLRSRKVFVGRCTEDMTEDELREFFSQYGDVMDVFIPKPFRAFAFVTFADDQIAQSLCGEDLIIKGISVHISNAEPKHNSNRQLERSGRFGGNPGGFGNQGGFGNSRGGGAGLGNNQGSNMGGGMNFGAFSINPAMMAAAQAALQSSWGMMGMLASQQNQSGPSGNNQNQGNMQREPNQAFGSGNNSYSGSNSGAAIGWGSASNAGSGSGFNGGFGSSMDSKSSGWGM

This test has as its target soluble TDP-43 (human). Briefly: SPR.
Take B1: the Kd was determined as 0.23 nM.

B2: the Kd was 0.11 nM.

B3 showed a Kd of 0.75 nM. Consider B4, for which binding was characterised by a dissociation constant (Kd) of 0.2 nM. Then B5, with 0.38 nM.
